In PMC3365582 one finds stoichiometry N data, which are given here for one substance.

The assay deals with PaiB transcriptional regulator from Geobacillus stearothermophilus (Geobacillus stearothermophilus). Kind of assay: crystal structure.

For orientation: stoichiometry N means the number of molecules, sites or subunits per partner or assembly. The substance “PaiB transcriptional regulator from Geobacillus stearothermophilus (natural protein)” registered a stoichiometry N of 2.
